No end group written: not given here. *: point of attachment. Biotin = O=C1N[C@H]2[C@H](CS[C@H]2CCCCC(=O)*)N1
Columns and labels:
[1] = target: T1, alpha-synuclein peptide 61-140 (human); experiment: peptide ELISA, coated fragment
T1 construct: synthetic peptide coated on plate

[2] = target: T2, alpha-synuclein peptide 95-140 (human); experiment: peptide ELISA, coated fragment
T2 construct: synthetic peptide coated on plate

[3] = target: T3, asyn_113-127_117A (human); experiment: Ala-scan peptide ELISA, row D, run 2
T3 construct: substitution is already in the entry; also called pep6
T3 peptide: Biotin-LEDMAVDPDNEAYEM

[4] = target: T4, asyn_113-127 (human); experiment: Ala-scan peptide ELISA, row D, run 2
T4 construct: also called pep1
T4 peptide: Biotin-LEDMPVDPDNEAYEM

[5] = target: T5, asyn_113-127_113A (human); experiment: Ala-scan peptide ELISA, row D, run 2
T5 construct: substitution is already in the entry; also called pep2
T5 peptide: Biotin-AEDMPVDPDNEAYEM

[6] = target: T6, asyn_113-127_120A (human); experiment: Ala-scan peptide ELISA, row D, run 2
T6 construct: substitution is already in the entry; also called pep9
T6 peptide: Biotin-LEDMPVDADNEAYEM

[7] = target: T7, asyn_113-127_118A (human); experiment: Ala-scan peptide ELISA, row D, run 2
T7 construct: substitution is already in the entry; also called pep7
T7 peptide: Biotin-LEDMPADPDNEAYEM

[8] = target: T8, asyn_113-127_124G (human); experiment: Ala-scan peptide ELISA, row D, run 2
T8 construct: substitution is already in the entry; also called pep13
T8 peptide: Biotin-LEDMPVDPDNEGYEM

[9] = target: T9, biotinylated human alpha-synuclein (human, UniProt P37840 1-140); experiment: Ala-scan peptide ELISA, row D, run 2
[10] = target: T10, asyn_113-127_124P (human); experiment: Ala-scan peptide ELISA, row D, run 2
T10 construct: substitution is already in the entry; also called pep14
T10 peptide: Biotin-LEDMPVDPDNEPYEM

[11] = target: T11, asyn_113-127_122A (human); experiment: Ala-scan peptide ELISA, row D, run 2
T11 construct: substitution is already in the entry; also called pep11
T11 peptide: Biotin-LEDMPVDPDAEAYEM

[12] = target: T12, asyn_113-127_126A (human); experiment: Ala-scan peptide ELISA, row D, run 2
T12 construct: substitution is already in the entry; also called pep16
T12 peptide: Biotin-LEDMPVDPDNEAYAM

[13] = target: T13, asyn_113-127_127A (human); experiment: Ala-scan peptide ELISA, row D, run 2
T13 construct: substitution is already in the entry; also called pep17
T13 peptide: Biotin-LEDMPVDPDNEAYEA

[14] = target: T14, asyn_113-127_125A (human); experiment: Ala-scan peptide ELISA, row D, run 2
T14 construct: substitution is already in the entry; also called pep15
T14 peptide: Biotin-LEDMPVDPDNEAAEM

[15] = target: T15, asyn_113-127_114A (human); experiment: Ala-scan peptide ELISA, row D, run 2
T15 construct: substitution is already in the entry; also called pep3
T15 peptide: Biotin-LADMPVDPDNEAYEM

[16] = target: T16, asyn_113-127_119A (human); experiment: Ala-scan peptide ELISA, row D, run 2
T16 construct: substitution is already in the entry; also called pep8
T16 peptide: Biotin-LEDMPVAPDNEAYEM

[17] = target: T17, asyn_113-127_116A (human); experiment: Ala-scan peptide ELISA, row D, run 2
T17 construct: substitution is already in the entry; also called pep5
T17 peptide: Biotin-LEDAPVDPDNEAYEM

[18] = target: T18, asyn_113-127_121A (human); experiment: Ala-scan peptide ELISA, row D, run 2
T18 construct: substitution is already in the entry; also called pep10
T18 peptide: Biotin-LEDMPVDPANEAYEM

[19] = target: T19, asyn_113-127_115A (human); experiment: Ala-scan peptide ELISA, row D, run 2
T19 construct: substitution is already in the entry; also called pep4
T19 peptide: Biotin-LEAMPVDPDNEAYEM

[20] = target: T20, asyn_113-127_123A (human); experiment: Ala-scan peptide ELISA, row D, run 2
T20 construct: substitution is already in the entry; also called pep12
T20 peptide: Biotin-LEDMPVDPDNAAYEM

[21] = target: T3, asyn_113-127_117A; experiment: Ala-scan peptide ELISA, row D, run 1
[22] = target: T4, asyn_113-127; experiment: Ala-scan peptide ELISA, row D, run 1
[23] = target: T6, asyn_113-127_120A; experiment: Ala-scan peptide ELISA, row D, run 1
[24] = target: T7, asyn_113-127_118A; experiment: Ala-scan peptide ELISA, row D, run 1
[25] = target: T8, asyn_113-127_124G; experiment: Ala-scan peptide ELISA, row D, run 1
[26] = target: T9, biotinylated human alpha-synuclein; experiment: Ala-scan peptide ELISA, row D, run 1
[27] = target: T10, asyn_113-127_124P; experiment: Ala-scan peptide ELISA, row D, run 1
[28] = target: T12, asyn_113-127_126A; experiment: Ala-scan peptide ELISA, row D, run 1
[29] = target: T13, asyn_113-127_127A; experiment: Ala-scan peptide ELISA, row D, run 1
[30] = target: T14, asyn_113-127_125A; experiment: Ala-scan peptide ELISA, row D, run 1
[31] = target: T15, asyn_113-127_114A; experiment: Ala-scan peptide ELISA, row D, run 1
[32] = target: T16, asyn_113-127_119A; experiment: Ala-scan peptide ELISA, row D, run 1
[33] = target: T17, asyn_113-127_116A; experiment: Ala-scan peptide ELISA, row D, run 1
[34] = target: T18, asyn_113-127_121A; experiment: Ala-scan peptide ELISA, row D, run 1
[35] = target: T19, asyn_113-127_115A; experiment: Ala-scan peptide ELISA, row D, run 1
[36] = target: T20, asyn_113-127_123A; experiment: Ala-scan peptide ELISA, row D, run 1

antibody concentration at which ELISA is positive [1]: < 40 ng/mL | antibody concentration at which ELISA is positive [2]: < 40 ng/mL | A450 [3]: 0.405 OD | A450 [4]: 0.331 OD | A450 [5]: 0.339 OD | A450 [6]: 0.18 OD | A450 [7]: 0.357 OD | A450 [8]: 0.287 OD | A450 [9]: 0.767 OD | A450 [10]: 0.05 OD | A450 [11]: 0.051 OD | A450 [12]: 0.342 OD | A450 [13]: 0.414 OD | A450 [14]: 0.05 OD | A450 [15]: 0.348 OD | A450 [16]: 0.046 OD | A450 [17]: 0.366 OD | A450 [18]: 0.335 OD | A450 [19]: 0.266 OD | A450 [20]: 0.321 OD | A450 [21]: 0.431 OD | A450 [22]: 0.421 OD | A450 [23]: 0.277 OD | A450 [24]: 0.415 OD | A450 [25]: 0.336 OD | A450 [26]: 0.491 OD | A450 [27]: 0.044 OD | A450 [28]: 0.375 OD | A450 [29]: 0.357 OD | A450 [30]: 0.047 OD | A450 [31]: 0.387 OD | A450 [32]: 0.051 OD | A450 [33]: 0.414 OD | A450 [34]: 0.358 OD | A450 [35]: 0.332 OD | A450 [36]: 0.43 OD
B1: 20H4 (antibody, rat IgG2b, V domains shown)
VH: AVQLVESGGGLVQPKESLKISCAASGFTFSNAAMYWVRQAPGKGLELLARIRTKPNNYATYHADSVKGRFTISRDDSQSMVYLHMGNLKTEDTAMYYCTADMATGDYWGPGVMVTVSS
VL: DIQMTQSPPVLSVSVGDRVTLSCKASQNINKNLDWYQQKHGEAPKPLIYSTNNLQTGVPSRFSGSGSGTDYTLTISSLQPEDVATYYCYQYKSAWTFGGGTKLELR
notes: also called clone 20H4; rat 20H4

From patent publication US20230074436A1 (DENALI THERAPEUTICS, published 2023)
